# Biological target: T1, SARS-CoV-2 Spike ectodomain (pre-fusion, with proline mutations) (SARS-CoV-2, early reference strain …, residues 986 and 987 mutated to a Pro-Pro sequence)
# T1 construct: also called pre-fusion Spike; trimeric Spike
# Experiment: cryo-EM structure
# Settings: both partners purified
binder,measurement,value
"EY6A Fab (digested from IgG with papain) (Fab, V domains shown, also called Fab-EY6A; source: digested from ExpiCHO-made IgG with papain (Pierce Fab Preparation Kit)) VH: EVQLVESGGGVVQPGRSLRLSCAASAFTFSSYDMHWVRQAPGKGLEWVAVISYDGSNKYYADSVKGRFTISRDNSKNTLYLQMNSLRAEDTAVYYCAKDGGKLWVYYFDYWGQGTLVTVSS VL: not shown",stoichiometry N,3 Fabs per Spike trimer

# Source: paper doi:10.1101/2020.06.12.148387 (bioRxiv, 2020)
